Results on eight molecules are retold here after patent US20240002482A1 (BEIJING SOLOBIO GENETECHNOLOGY, published 2024).

First the molecules themselves.
B1: anti-PcrV/anti-Psl bispecific antibody STS7B15925M (bispecific antibody)
heavy: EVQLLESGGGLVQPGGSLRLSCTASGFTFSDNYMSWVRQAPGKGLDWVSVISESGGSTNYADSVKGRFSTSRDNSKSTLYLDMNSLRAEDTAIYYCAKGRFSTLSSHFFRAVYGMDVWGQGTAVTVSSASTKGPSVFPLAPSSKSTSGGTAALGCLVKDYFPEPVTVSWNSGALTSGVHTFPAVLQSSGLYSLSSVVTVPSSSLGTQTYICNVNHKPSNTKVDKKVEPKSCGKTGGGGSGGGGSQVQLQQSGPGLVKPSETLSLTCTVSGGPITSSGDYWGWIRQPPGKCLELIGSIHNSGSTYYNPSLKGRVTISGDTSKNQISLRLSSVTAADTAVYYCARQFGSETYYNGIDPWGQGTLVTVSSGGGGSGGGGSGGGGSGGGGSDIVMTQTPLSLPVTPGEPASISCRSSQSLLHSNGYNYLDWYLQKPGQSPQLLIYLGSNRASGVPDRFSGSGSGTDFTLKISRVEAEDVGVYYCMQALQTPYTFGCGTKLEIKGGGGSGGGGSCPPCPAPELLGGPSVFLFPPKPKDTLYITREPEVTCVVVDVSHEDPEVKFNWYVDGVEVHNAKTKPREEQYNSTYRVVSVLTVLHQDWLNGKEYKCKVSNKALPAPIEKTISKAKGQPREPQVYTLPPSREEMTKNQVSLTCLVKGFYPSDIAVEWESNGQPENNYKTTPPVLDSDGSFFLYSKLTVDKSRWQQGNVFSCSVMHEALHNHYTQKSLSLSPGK
light: DIQLTQSPSSLSASVGDRVTITCRASQGISSYLAWYQQKPGKAPKLLIYAASTLQSGVPSRFSGSGSGTDFTLTISSLQPEDFATYYCQQLSSYPLTFGGGTKVEIKRTVAAPSVFIFPPSDEQLKSGTASVVCLLNNFYPREAKVQWKVDNALQSGNSQESVTEQDSKDSTYSLSSTLTLSKADYEKHKVYACEVTHQGLSSPVTKSFNRGEC
notes: Chimeric heavy chain: VH-CH1-linker-scFv(anti-Psl)-linker-CH2-CH3; The Fab is from 7B1 (anti-PcrV); Optimized variant of STS7B15925
B2: anti-PcrV/anti-Psl bispecific antibody STS7B112M (bispecific antibody)
heavy: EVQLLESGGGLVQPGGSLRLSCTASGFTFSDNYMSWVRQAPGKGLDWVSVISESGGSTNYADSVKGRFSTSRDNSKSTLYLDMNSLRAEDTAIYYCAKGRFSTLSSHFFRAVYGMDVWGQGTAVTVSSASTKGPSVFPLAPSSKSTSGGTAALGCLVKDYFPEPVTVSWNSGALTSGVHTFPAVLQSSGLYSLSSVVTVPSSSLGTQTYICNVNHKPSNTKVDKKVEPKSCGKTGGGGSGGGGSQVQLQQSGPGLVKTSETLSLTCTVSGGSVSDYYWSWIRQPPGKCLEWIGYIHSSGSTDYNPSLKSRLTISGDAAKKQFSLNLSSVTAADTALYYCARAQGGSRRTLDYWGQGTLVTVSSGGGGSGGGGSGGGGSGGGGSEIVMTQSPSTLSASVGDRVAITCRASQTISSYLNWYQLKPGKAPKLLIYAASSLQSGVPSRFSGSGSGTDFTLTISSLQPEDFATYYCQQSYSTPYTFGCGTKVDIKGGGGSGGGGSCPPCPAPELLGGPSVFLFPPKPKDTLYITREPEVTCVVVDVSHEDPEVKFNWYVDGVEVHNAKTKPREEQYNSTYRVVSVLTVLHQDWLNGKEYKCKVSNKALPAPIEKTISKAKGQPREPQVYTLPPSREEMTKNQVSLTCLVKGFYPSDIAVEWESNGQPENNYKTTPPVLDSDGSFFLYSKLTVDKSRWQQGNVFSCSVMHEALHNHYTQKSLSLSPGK
light: DIQLTQSPSSLSASVGDRVTITCRASQGISSYLAWYQQKPGKAPKLLIYAASTLQSGVPSRFSGSGSGTDFTLTISSLQPEDFATYYCQQLSSYPLTFGGGTKVEIKRTVAAPSVFIFPPSDEQLKSGTASVVCLLNNFYPREAKVQWKVDNALQSGNSQESVTEQDSKDSTYSLSSTLTLSKADYEKHKVYACEVTHQGLSSPVTKSFNRGEC
notes: Chimeric heavy chain: 7B1 VH-CH1-linker-scFv(anti-Psl 3F12)-linker-CH2-CH3
B3: anti-PcrV/anti-Psl bispecific antibody STS7B11201M (bispecific antibody)
heavy: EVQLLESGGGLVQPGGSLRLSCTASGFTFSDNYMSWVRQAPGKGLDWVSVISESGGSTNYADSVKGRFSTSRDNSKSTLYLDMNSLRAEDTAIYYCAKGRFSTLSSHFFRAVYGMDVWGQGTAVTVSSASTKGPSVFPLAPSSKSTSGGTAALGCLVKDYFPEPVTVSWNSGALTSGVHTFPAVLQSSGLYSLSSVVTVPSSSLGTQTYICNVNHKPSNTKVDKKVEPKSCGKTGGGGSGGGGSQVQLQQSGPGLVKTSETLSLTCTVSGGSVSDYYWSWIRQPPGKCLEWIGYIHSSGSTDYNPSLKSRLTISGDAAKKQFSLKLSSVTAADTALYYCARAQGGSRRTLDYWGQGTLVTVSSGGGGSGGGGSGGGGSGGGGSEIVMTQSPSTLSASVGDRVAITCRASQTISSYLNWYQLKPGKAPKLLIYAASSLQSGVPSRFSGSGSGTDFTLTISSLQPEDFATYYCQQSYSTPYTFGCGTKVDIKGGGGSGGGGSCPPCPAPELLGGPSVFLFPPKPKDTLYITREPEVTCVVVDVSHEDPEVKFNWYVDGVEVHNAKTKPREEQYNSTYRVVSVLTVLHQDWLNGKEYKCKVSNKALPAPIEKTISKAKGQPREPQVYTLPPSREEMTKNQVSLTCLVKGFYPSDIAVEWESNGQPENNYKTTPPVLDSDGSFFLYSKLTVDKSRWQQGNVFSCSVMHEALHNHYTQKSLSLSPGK
light: DIQLTQSPSSLSASVGDRVTITCRASQGISSYLAWYQQKPGKAPKLLIYAASTLQSGVPSRFSGSGSGTDFTLTISSLQPEDFATYYCQQLSSYPLTFGGGTKVEIKRTVAAPSVFIFPPSDEQLKSGTASVVCLLNNFYPREAKVQWKVDNALQSGNSQESVTEQDSKDSTYSLSSTLTLSKADYEKHKVYACEVTHQGLSSPVTKSFNRGEC
B4: anti-PcrV/anti-Psl bispecific antibody STS7B1H924M (bispecific antibody)
heavy: EVQLLESGGGLVQPGGSLRLSCTASGFTFSDNYMSWVRQAPGKGLDWVSVISESGGSTNYADSVKGRFSTSRDNSKSTLYLDMNSLRAEDTAIYYCAKGRFSTLSSHFFRAVYGMDVWGQGTAVTVSSASTKGPSVFPLAPSSKSTSGGTAALGCLVKDYFPEPVTVSWNSGALTSGVHTFPAVLQSSGLYSLSSVVTVPSSSLGTQTYICNVNHKPSNTKVDKKVEPKSCGKTGGGGSGGGGSQVQLVQSGAEVKKPGASVKVSCKASGDTSTIHSVHWVRQAPGQCLEWMGTIISSGTTTTYAQSFQDRVSMTIDRSTSTGYMELSSLRFEDTAVYYCTTDGTSWGQGTLVTVSSGGGGSGGGGSGGGGSGGGGSDIQLTQSPSSVSASVGDRVTIACRASQGISSWLAWYQQKPGKAPKLLIYHASTLESGVPSRFSGSGSGTDFTLTISSLQPEDFATYYCLQASSLPHTFGCGTKLEIKGGGGSGGGGSCPPCPAPELLGGPSVFLFPPKPKDTLYITREPEVTCVVVDVSHEDPEVKFNWYVDGVEVHNAKTKPREEQYNSTYRVVSVLTVLHQDWLNGKEYKCKVSNKALPAPIEKTISKAKGQPREPQVYTLPPSREEMTKNQVSLTCLVKGFYPSDIAVEWESNGQPENNYKTTPPVLDSDGSFFLYSKLTVDKSRWQQGNVFSCSVMHEALHNHYTQKSLSLSPGK
light: DIQLTQSPSSLSASVGDRVTITCRASQGISSYLAWYQQKPGKAPKLLIYAASTLQSGVPSRFSGSGSGTDFTLTISSLQPEDFATYYCQQLSSYPLTFGGGTKVEIKRTVAAPSVFIFPPSDEQLKSGTASVVCLLNNFYPREAKVQWKVDNALQSGNSQESVTEQDSKDSTYSLSSTLTLSKADYEKHKVYACEVTHQGLSSPVTKSFNRGEC
notes: Chimeric heavy chain: 7B1 VH-CH1-linker-scFv(anti-Psl 7H924)-linker-CH2-CH3
B5: anti-PcrV/anti-Psl bispecific antibody STS7B15921M (bispecific antibody)
heavy: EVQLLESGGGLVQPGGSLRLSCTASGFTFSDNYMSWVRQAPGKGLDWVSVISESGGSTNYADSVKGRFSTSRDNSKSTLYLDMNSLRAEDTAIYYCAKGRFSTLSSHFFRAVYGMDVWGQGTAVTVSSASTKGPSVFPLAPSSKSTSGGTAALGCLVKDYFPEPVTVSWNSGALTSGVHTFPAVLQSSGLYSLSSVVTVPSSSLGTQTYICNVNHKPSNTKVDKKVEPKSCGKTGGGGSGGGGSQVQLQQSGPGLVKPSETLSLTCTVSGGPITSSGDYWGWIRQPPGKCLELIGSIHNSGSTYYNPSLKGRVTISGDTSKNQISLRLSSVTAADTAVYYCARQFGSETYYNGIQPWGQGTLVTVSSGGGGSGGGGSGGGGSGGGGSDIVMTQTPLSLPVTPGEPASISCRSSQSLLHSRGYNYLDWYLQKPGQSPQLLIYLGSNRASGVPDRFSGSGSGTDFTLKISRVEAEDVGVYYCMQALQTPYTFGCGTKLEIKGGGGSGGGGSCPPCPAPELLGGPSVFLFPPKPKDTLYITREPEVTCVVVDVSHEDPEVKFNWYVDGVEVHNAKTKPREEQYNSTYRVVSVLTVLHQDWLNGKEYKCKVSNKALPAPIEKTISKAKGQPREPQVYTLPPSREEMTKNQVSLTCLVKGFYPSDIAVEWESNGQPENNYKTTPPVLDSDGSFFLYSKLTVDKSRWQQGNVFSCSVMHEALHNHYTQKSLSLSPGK
light: DIQLTQSPSSLSASVGDRVTITCRASQGISSYLAWYQQKPGKAPKLLIYAASTLQSGVPSRFSGSGSGTDFTLTISSLQPEDFATYYCQQLSSYPLTFGGGTKVEIKRTVAAPSVFIFPPSDEQLKSGTASVVCLLNNFYPREAKVQWKVDNALQSGNSQESVTEQDSKDSTYSLSSTLTLSKADYEKHKVYACEVTHQGLSSPVTKSFNRGEC
notes: Chimeric heavy chain: 7B1 VH-CH1-linker-scFv(anti-Psl P5921)-linker-CH2-CH3
B6: anti-PcrV/anti-Psl bispecific antibody STS7B11201S (bispecific antibody)
heavy: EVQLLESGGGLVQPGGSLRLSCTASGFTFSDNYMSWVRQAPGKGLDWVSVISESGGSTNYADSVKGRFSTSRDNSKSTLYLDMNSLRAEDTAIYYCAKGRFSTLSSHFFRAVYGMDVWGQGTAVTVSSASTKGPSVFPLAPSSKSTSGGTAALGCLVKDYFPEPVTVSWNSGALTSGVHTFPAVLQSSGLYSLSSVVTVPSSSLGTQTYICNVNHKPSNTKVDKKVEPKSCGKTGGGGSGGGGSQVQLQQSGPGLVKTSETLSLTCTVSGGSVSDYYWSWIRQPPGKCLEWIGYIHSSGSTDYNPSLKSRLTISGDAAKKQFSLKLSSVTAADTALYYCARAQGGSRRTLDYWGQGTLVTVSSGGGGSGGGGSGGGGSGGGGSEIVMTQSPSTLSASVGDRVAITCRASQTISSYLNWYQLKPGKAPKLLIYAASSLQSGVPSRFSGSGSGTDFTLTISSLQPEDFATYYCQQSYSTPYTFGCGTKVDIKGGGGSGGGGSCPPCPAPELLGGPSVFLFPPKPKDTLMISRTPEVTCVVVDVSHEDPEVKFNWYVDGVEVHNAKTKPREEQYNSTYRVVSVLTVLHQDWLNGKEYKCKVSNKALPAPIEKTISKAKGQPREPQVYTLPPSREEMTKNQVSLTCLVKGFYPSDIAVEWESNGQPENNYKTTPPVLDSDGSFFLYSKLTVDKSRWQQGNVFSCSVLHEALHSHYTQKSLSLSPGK
light: DIQLTQSPSSLSASVGDRVTITCRASQGISSYLAWYQQKPGKAPKLLIYAASTLQSGVPSRFSGSGSGTDFTLTISSLQPEDFATYYCQQLSSYPLTFGGGTKVEIKRTVAAPSVFIFPPSDEQLKSGTASVVCLLNNFYPREAKVQWKVDNALQSGNSQESVTEQDSKDSTYSLSSTLTLSKADYEKHKVYACEVTHQGLSSPVTKSFNRGEC
notes: also called STS7B112015
B7: anti-PcrV/anti-Psl bispecific antibody STS7B159S (bispecific antibody)
heavy: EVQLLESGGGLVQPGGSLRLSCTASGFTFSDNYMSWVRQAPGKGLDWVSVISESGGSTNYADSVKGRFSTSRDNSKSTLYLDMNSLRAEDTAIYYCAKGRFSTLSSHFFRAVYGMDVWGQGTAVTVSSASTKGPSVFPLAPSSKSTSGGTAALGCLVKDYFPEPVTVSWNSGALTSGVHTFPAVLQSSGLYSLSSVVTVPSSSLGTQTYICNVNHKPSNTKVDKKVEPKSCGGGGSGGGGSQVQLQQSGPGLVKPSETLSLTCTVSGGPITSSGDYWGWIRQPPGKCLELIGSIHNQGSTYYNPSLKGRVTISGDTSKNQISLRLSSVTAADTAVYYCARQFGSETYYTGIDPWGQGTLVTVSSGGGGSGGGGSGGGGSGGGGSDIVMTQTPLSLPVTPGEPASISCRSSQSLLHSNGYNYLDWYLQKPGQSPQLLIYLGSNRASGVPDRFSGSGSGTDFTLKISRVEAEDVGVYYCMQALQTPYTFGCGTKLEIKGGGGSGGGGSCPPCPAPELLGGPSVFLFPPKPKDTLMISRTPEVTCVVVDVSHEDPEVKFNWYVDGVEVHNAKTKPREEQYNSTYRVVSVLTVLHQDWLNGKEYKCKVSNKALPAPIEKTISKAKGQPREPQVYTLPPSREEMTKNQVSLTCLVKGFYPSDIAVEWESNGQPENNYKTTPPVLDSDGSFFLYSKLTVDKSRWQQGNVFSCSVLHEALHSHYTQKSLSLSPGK
light: DIQLTQSPSSLSASVGDRVTITCRASQGISSYLAWYQQKPGKAPKLLIYAASTLQSGVPSRFSGSGSGTDFTLTISSLQPEDFATYYCQQLSSYPLTFGGGTKVEIKRTVAAPSVFIFPPSDEQLKSGTASVVCLLNNFYPREAKVQWKVDNALQSGNSQESVTEQDSKDSTYSLSSTLTLSKADYEKHKVYACEVTHQGLSSPVTKSFNRGEC
notes: also called STS7B1595
B8: anti-PcrV antibody 7B1 (antibody, V domains shown)
VH: EVQLLESGGGLVQPGGSLRLSCTASGFTFSDNYMSWVRQAPGKGLDWVSVISESGGSTNYADSVKGRFSTSRDNSKSTLYLDMNSLRAEDTAIYYCAKGRFSTLSSHFFRAVYGMDVWGQGTAVTVSS
VL: DIQLTQSPSSLSASVGDRVTITCRASQGISSYLAWYQQKPGKAPKLLIYAASTLQSGVPSRFSGSGSGTDFTLTISSLQPEDFATYYCQQLSSYPLTFGGGTKVEIK
notes: Monospecific antibody, optimized from the 13-42 lead

As a reminder, the Kd is the concentration at which binding is half-saturated. Read a high Kd as a looser complex. Usually koff stands for the first-order rate constant of dissociation. The low end stands for slow dissociation, the high end for fast dissociation. Usually kon stands for the second-order rate constant of association. Higher therefore signals faster complex formation.

In one experiment the target is T1, PcrV protein (Pseudomonas aeruginosa type III secretion system protein) (Pseudomonas aeruginosa).
T1 construct: The ELISA used 'synthetic PcrV' as plate coat; Biacore and BLI used 'PcrV protein' in solution; also called synthetic PcrV; Full-length PcrV
The experiment is described as follows: ELISA on plate-coated synthetic PcrV, detection with goat anti-human Fc-AP and pNPP, OD410. How it is done: STS7B15925, STS7B1H9 and STS7B112 were further optimized by introducing variants in the VH, VL, and/or Fc, giving rise to STS7B15925M, STS7B15921M, STS7B1H9M, STS7B1H924M, STS7B112M, and STS7B11201M. For the ELISA experiment, synthetic PcrV or PAO1 was used to coat the wells of a 96-well plate. On the following day, after washing with PBST, blocking with 200 μL PBS-milk for an hour, and another wash with PBST, the respective antibodies were added and incubated for an hour at 37° C. The plate was washed with 0.1% TBST 6 times before 100 μL of Goat-anti-human Fc antibody-AP (1:3000 in PBS) was added to each well and incubated for an hour. After washing with 0.1% TBST for 6 times, 50 μL of pNPP (p-nitrophenyl phosphate) was added to each well and color was developed for […] at 37 C. Subsequently, the colorimetric signals were read by a microplate reader at 410 nm. The ELISA results (OD410) were analyzed and the EC50 values were calculated.
On the technique in general: In an ELISA, binding on a coated surface is turned into a signal by an enzyme label.
Consider B1, for which the binding result is recorded as “binds”.

B2: the binding result was “binds”.

For B3, the binding result is recorded as “binds”.

Turning to B4, the binding result is “binds”.

Consider B5, for which the binding result is given as “binds”.

The target in the next experiment is T1, PcrV protein (Pseudomonas aeruginosa …). The experiment can be described thus: SPR (BIACORE T200), 25 C; antibody captured on CM5 chip, serial dilutions of PcrV protein injected. How it is done:
Binding affinity (Kd) of selected bispecific antibodies with respect to PcrV at 25° C. was determined using a real-time biosensor surface plasmon resonance assay (BIACORE™ T200). Briefly, the antibody was first captured on a CM5 chip to form an antibody surface. Serial dilutions of PcrV protein were injected over the antibody surface. Binding of antigen to antibody and dissociation of the bound complex were monitored in real time. Equilibrium dissociation constants (Kd) and dissociation rate constants were ascertained by performing kinetic analysis using BIA evaluation software.
(In general: SPR reads the build-up and loss of mass on a sensor chip optically.)
B6 had a Kd of 0.265 nM, a koff of 4.52e-05 s⁻¹ and a kon of 170000 M⁻¹ s⁻¹.

Consider B7, for which the Kd was found to be 0.179 nM, the koff stood at 3.13e-05 s⁻¹ and the kon was 174000 M⁻¹ s⁻¹.

For the molecule B8, the dissociation constant (Kd) amounted to 0.335 nM, the off-rate constant (koff) is 4.82e-05 s⁻¹ and the kon stood at 144000 M⁻¹ s⁻¹.
